How the values were obtained:
[1] = molecular target: Rabbit skeletal muscle actin, monomeric (G-actin), 100% pyrene labeled (rabbit) (UniProt P68135); assay: other fluorescence titration
[2] = molecular target: APC-B-ΔN4; assay: SEC + other: sucrose gradient sedimentation velocity

With “APC-B, the C-terminal Basic domain of adenomatous polyposis coli protein (domain or fragment)” the Kd [1] was 17.3 nM.

B1: APC-B-ΔN4 (domain or fragment)
chain: ASTKSSGSGKMSYTSPGRQMSQQNLTKQTGLSKNASSIPRSESASKGLNQMNNGNGANKKVELSRMSSTKSSGSESDRSERPVLVRQSTFIKEAPSPTLRRKLEESASFESLSPSSRPASPTRSQAQTPVLSPSLPDMSLSTHSSVQAGGWRKLPPNLSPTIEYNDGRPAKRHDIARSHSESPSRLPINRSGTWKREHSKHSSSLPRVSTWRRTGSSSSILSASSESSEKAKSEDEKHVNSISGTKQSKENQVSAKGTWRKIKENEFSPTNSTSQTVSSGATNGAESKTLIYQMAPAVSKTEDVWVRIEDCPINNPRSGRS
modifications: not checked
With B1 the stoichiometry N [2] was 1.97.
